This is an account of results in publication PMC4581966 (Cytokine & growth factor reviews, 2015).

The data set “SEC” deals with the molecule itself. The experiment in a line: SEC. A general note: In gel filtration, larger molecules generally elute earlier.
Data set [1] addresses T1, Ebi3 subunit of mouse recombinant IL-35 (rIL-35) (mouse), O35228.
T1 chain: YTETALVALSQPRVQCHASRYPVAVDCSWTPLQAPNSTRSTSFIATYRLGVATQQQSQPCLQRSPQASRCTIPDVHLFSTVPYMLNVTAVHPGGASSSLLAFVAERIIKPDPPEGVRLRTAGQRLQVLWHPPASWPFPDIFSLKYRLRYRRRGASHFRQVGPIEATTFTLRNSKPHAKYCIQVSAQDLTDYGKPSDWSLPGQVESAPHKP
The experiment in a line: SEC. The conditions noted are these: remark: other sources report otherwise.

Broadly, the stoichiometry N is the number of molecules, sites or subunits per partner or assembly.

B1: IL-12p35 subunit of mouse recombinant IL-35 (rIL-35) (natural protein, UniProt P43431 23-215, looked up)
chain: RVIPVSGPARCLSQSRNLLKTTDDMVKTAREKLKHYSCTAEDIDHEDITRDQTSTLKTCLPLELHKNESCLATRETSSTTRGSCLPPQKTSLMMTLCLGSIYEDLKMYQTEFQAINAALQNHNHQQIILDKGMLVAIDELMQSLNHNGETLRQKPPVGEADPYRVKMKLCILLHAFSTRVVTINRVMGYLSSA
For the molecule B1, the “stoichiometry N” value in “SEC” is 2.

B2: Ebi3 subunit of mouse recombinant IL-35 (rIL-35), O35228 19-228 (natural protein)
chain: T1 chain
For the molecule B2, the stoichiometry N in data set [1] amounted to 2.
